Test results from the supplement of paper PMC10126150.
± gives the standard deviation of the averaged measurements.

test system: ATP; assay: switch fluorescence ratio, 500 uM ATP over buffer (Cy3 cluster intensity, sum of 5 cycles each) (fold (ratio)); higher = stronger signal-on switching upon ATP binding; sequences stand for … in TCGTCGGCAGCGTCAGATGTGTATAAGAGACAGTTTTTTTTTTTTTTTTTTTTTTTTT…TC; conditions: aptamer strand: ATP DNA aptamer (quencher-CACCTGGGGGAGTATTGCGGAGGAAGG + anchor), 100 nM annealed; ATP concentration: 500 uM
Summary of the method: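 Cy3-labelled switching-strand clusters on a modified Illumina MiSeq flow-cell were annealed to 100 nM quencher-labelled ATP aptamer and imaged first in selection buffer, then after 15 min with 500 uM ATP at 22 °C. NaOH stripping and re-annealing separated each of five buffer/ATP cycles, and clusters outside 100-1000 RFU were excluded. The fluorescence ratio sums target-cycle Cy3 intensity over buffer-cycle Cy3 intensity per cluster and averages it per switch-domain sequence.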
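Further: ATP exposure 15 min at 22 °C before imaging.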

| Sequence | switch fluorescence ratio |
| --- | --- |
| AGTGTTTGGT | 0.989 ± 0.021 |
| CGCCGCTGGG | 1.993 ± 0.0075 |
| TTACGGAT | 1.06 ± 0.019 |
| CTTTATAATC | 0.986 ± 0.026 |
| TTTTGGTGTT | 1.02 ± 0.036 |
| CAGGGGCTCG | 1.01 ± 0.036 |
| AGAGTGTTTT | 1 ± 0.028 |
| TAAAGCCGGT | 1.009 ± 0.0023 |
| ATTTGTATGC | 1 ± 0.051 |
| AATAGGATAG | 1.02 ± 0.011 |
| GGAGGATACG | 1.02 ± 0.025 |
| GGTTTGTCGT | 0.957 ± 0.04 |
| AGCCTTTTTT | 0.982 ± 0.011 |
| TAAAATTTAG | 1 ± 0.04 |
| CGATAGTATA | 1.007 ± 0.0082 |
| GAAGCTTTTT | 1 ± 0.047 |
| CATCTGGGCC | 1.01 ± 0.022 |
| ACGTAAACGC | 1.085 ± 0.0018 |
| AAATAATGCA | 0.9863 ± 0.0076 |
| ACAGCTTCTA | 1.03 ± 0.021 |
| GGTTTCTTCG | 1.09 ± 0.1 |
| GACTTTGGGC | 1.01 ± 0.038 |
| AACCCGCCTT | 1.07 ± 0.067 |
| TCCCCATGGC | 1.35 ± 0.1 |
| GATCTATTGT | 0.9619 ± 0.0088 |

| Sequence | switch fluorescence ratio |
| --- | --- |
| GACGCGTTTA | 1.07 ± 0.034 |
| GCGGCCCGAG | 0.962 ± 0.022 |
| AGGTTGAAGT | 0.988 ± 0.011 |
| TACACTGGGT | 0.999 ± 0.022 |
| TTCAAAAGGG | 1.05 ± 0.052 |
| GATTTGGGTT | 1.02 ± 0.041 |
| AAGGTTAAGT | 1.02 ± 0.016 |
| GTTTTAGCGG | 0.964 ± 0.027 |
| TATTTGGTGG | 1.02 ± 0.027 |
| ATCGGGACGG | 0.9829 ± 0.0029 |
| TTTTTAGGC | 1.01 ± 0.078 |
| GTTGGAGGTT | 0.9921 ± 0.0052 |
| AGAGATGAGA | 1.02 ± 0.031 |
| ATCTTCAACT | 1.052 ± 0.01 |
| ATAAGTTAAG | 0.999 ± 0.013 |
| GTGGGGCGGA | 1.01 ± 0.023 |
| GAATGTAGTC | 1.01 ± 0.013 |
| TGGATCTTCG | 0.9903 ± 0.0077 |
| GATCACAGGG | 1.13 ± 0.01 |
| ACGACCATCG | 1.01 ± 0.02 |
| AAGTAATGGA | 1.04 ± 0.06 |
| GCCATCGTCG | 1.01 ± 0.044 |
| GTAGTTTTGG | 1.01 ± 0.026 |
| AAATTGTATT | 1 ± 0.024 |
| GGGAGCGTTT | 0.981 ± 0.046 |

| Sequence | switch fluorescence ratio |
| --- | --- |
| GCATTCCGAA | 1.22 ± 0.028 |
| GAATATTTAA | 0.998 ± 0.014 |
| TAAGTTTTTA | 1.03 ± 0.023 |
| GCGTATGAGA | 1.02 ± 0.013 |
| TGGTTTATTG | 1.01 ± 0.024 |
| AGGCTACCGT | 1.0254 ± 0.001 |
| CGGGTTGCGG | 0.9508 ± 0.009 |
| GAGAGAGGGC | 0.966 ± 0.073 |
| GTTTGGTGC | 1.02 ± 0.022 |
| ACCCTGGGGT | 2.14 ± 1.6 |
| GGTGGTCAGC | 1.012 ± 0.0049 |
| GTTGAAGGCA | 1.01 ± 0.022 |
| TTTTACAATT | 0.9885 ± 0.0015 |
| AAAAGAGTGT | 1.01 ± 0.023 |
| ACGTGTGAC | 1 ± 0.023 |
| TTTGGCATCA | 1.04 ± 0.013 |
| GGGTCGTGCT | 1.03 ± 0.022 |
| CGAGGGTAAG | 1 ± 0.0022 |
| TGTCCACTAC | 2.78 ± 2.3 |
| GGGGTGATAT | 1.58 ± 0.78 |
| GCGCTTTCAC | 1.53 ± 0.026 |
| TTACCCCGAA | 1.026 ± 0.0067 |
| AAGTCGGGAC | 1.08 ± 0.039 |
| GTGGGGGTAA | 0.9692 ± 0.0039 |
| GGGTTTATTT | 0.982 ± 0.014 |

| Sequence | switch fluorescence ratio |
| --- | --- |
| TTATTAAGGT | 1.01 ± 0.031 |
| ATTAGAGCGT | 1.013 ± 0.0045 |
| GCAAGAGATA | 1.02 ± 0.017 |
| TAGGGATGGT | 0.979 ± 0.022 |
| AAAGTAGACA | 1.005 ± 0.0063 |
| AGGTGAAGGG | 1.02 ± 0.018 |
| CGGTCGAGGT | 0.993 ± 0.038 |
| ATGGATTTAC | 1.06 ± 0.028 |
| TTTCAGTCGG | 1.006 ± 0.0037 |
| TGATACGGGG | 1.01 ± 0.026 |
| AGGGGAGGAC | 1.03 ± 0.02 |
| TTTACTTGTA | 1.01 ± 0.023 |
| AAGAAGATTT | 1 ± 0.012 |
| AAGGGTCACC | 0.999 ± 0.031 |
| ATAAAACGC | 1.04 ± 0.071 |
| ACTTAGAATA | 1.032 ± 0.0033 |
| GTAGGAGGTG | 1.07 ± 0.019 |
| TTGGGGTTAC | 1.11 ± 0.16 |
| TCTTTGTTGA | 0.995 ± 0.032 |
| CGGGAGGTCG | 1.05 ± 0.082 |
| TTCGGTGGTT | 1.08 ± 0.076 |
| TGGGCCCGGC | 1.02 ± 0.053 |
| GCTTCCTAAG | 1.139 ± 0.0072 |
| TGGTCTTTGT | 1 ± 0.015 |
| TTCTATGCAT | 1.14 ± 0.13 |

| Sequence | switch fluorescence ratio |
| --- | --- |
| ATCTTAAGTA | 0.9977 ± 0.0091 |
| TTTGACGTTG | 1.02 ± 0.047 |
| CGCAGGCACG | 1.07 ± 0.052 |
| TGAGGTACTA | 0.999 ± 0.053 |
| ATAGTAAGTA | 0.996 ± 0.024 |
| TAGTCGTTAG | 1 ± 0.037 |
| TGAAAGATCG | 1.02 ± 0.04 |
| TTAGAAACGC | 1.02 ± 0.04 |
| TATTTCGAAT | 1.11 ± 0.18 |
| ATAAAGAGAG | 1.01 ± 0.023 |
| TATTAAGTAG | 1.03 ± 0.038 |
| AAGGCCGGAA | 1.04 ± 0.025 |
| TTTGTCGCGG | 1.02 ± 0.025 |
| TAGGGGTAGC | 0.985 ± 0.04 |
| CCAGACAGC | 1.01 ± 0.052 |
| TACTTCATTC | 1.037 ± 0.0095 |
| GTGGGATGGA | 0.978 ± 0.014 |
| AATCGTCATC | 0.991 ± 0.016 |
| GACCCAGGTA | 2.75 ± 0.18 |
| TCGTTATGGA | 0.987 ± 0.035 |
| TAAAGGACGG | 1.01 ± 0.038 |
| ACGGTCACCC | 1.66 ± 0.07 |
| TCGTGGGGGA | 1.02 ± 0.028 |
| TTTGGATTTG | 1.03 ± 0.027 |
| GGGGGACTAG | 1.02 ± 0.024 |

| Sequence | switch fluorescence ratio |
| --- | --- |
| ATGTGCATGT | 0.986 ± 0.024 |
| TGTTGCCGGG | 1.0541 ± 0.00067 |
| GGAGGAAGTC | 0.975 ± 0.0024 |
| GCCTGGGACC | 0.996 ± 0.022 |
| TGGTTGGACG | 0.997 ± 0.017 |
| ATGTCCGAGG | 1.028 ± 0.0019 |
| CGAATGGAAC | 0.989 ± 0.017 |
| ATGGGGTCGA | 1 ± 0.051 |
| ACGCTGGTGT | 1.34 ± 0.44 |
| GATGCTAGAC | 3 ± 0.11 |
| ACTCTACCGT | 1.29 ± 0.057 |
| CTCGTGTTCG | 0.984 ± 0.013 |
| GGTTGTTACG | 0.987 ± 0.033 |
| GTTTTTCCTT | 0.998 ± 0.022 |
| AACTGTTGGT | 0.978 ± 0.025 |
| GATTGCATGC | 1.032 ± 0.0014 |
| TTATACGATG | 1.01 ± 0.025 |
| AGCACGAAGG | 0.992 ± 0.04 |
| TGGTGTATAG | 1 ± 0.036 |
| TTACGGAGGC | 1.0641 ± 5.8e-05 |
| CACCCTGGTG | 4.51 ± 0.57 |
| CCTGAGGGGA | 1.16 ± 0.2 |
| GTTGTATGAT | 0.9841 ± 0.0096 |
| ATAAGGATAG | 1 ± 0.011 |
| CGCCGGCGGG | 0.978 ± 0.034 |

| Sequence | switch fluorescence ratio |
| --- | --- |
| ATTTTGTTGG | 1.11 ± 0.2 |
| CGGGGTGCTT | 1.01 ± 0.012 |
| CTACGTCATT | 1.41 ± 0.095 |
| TAGAGAATTT | 0.984 ± 0.02 |
| GAACTTAAAA | 1.02 ± 0.045 |
| TCGAGTTCTT | 0.999 ± 0.012 |
| CGCGGTAATT | 1.05 ± 0.063 |
| AACATTTCTT | 0.976 ± 0.045 |
| TGGTGGCCTT | 1.03 ± 0.032 |
| TCAGGGATGG | 0.984 ± 0.042 |
| AGACGCAGTG | 0.9834 ± 0.0038 |
| TGGTGTGGGC | 0.985 ± 0.048 |
| TTGGAAAAAG | 1.1 ± 0.18 |
| CTACTATAAT | 1.04 ± 0.043 |
| CGGGGGATTT | 1.01 ± 0.014 |
| GGTTAGTAGG | 0.986 ± 0.021 |
| AAGTGATATA | 1.01 ± 0.017 |
| GATGTTATAA | 1 ± 0.029 |
| GGTGAATGGG | 1.01 ± 0.032 |
| GTAAGGGATG | 1.01 ± 0.016 |
| AAATGTTTAA | 1.01 ± 0.019 |
| GGGGTTTTG | 0.953 ± 0.0088 |
| TATTAGGGAT | 0.9951 ± 0.0058 |
| AAGTTCGTTG | 1.01 ± 0.036 |
| AGTATAGTGG | 1.03 ± 0.022 |

| Sequence | switch fluorescence ratio |
| --- | --- |
| GGGTTCACGG | 1 ± 0.014 |
| TGATCATGTT | 0.984 ± 0.037 |
| GACTTGGGCG | 0.957 ± 0.084 |
| CAAGGACATA | 1.07 ± 0.038 |
| ATCTGCGCGC | 0.992 ± 0.011 |
| AAGTTCGGGA | 1 ± 0.029 |
| GATTTTCAGT | 0.975 ± 0.013 |
| GGTTCTGATC | 0.981 ± 0.01 |
| GAGAAGAGGG | 1.04 ± 0.042 |
| TGTGGTTTGT | 1 ± 0.035 |
| ACGTTTACCA | 1.217 ± 0.0099 |
| GAGTTGGGTC | 1.02 ± 0.021 |
| CGTTAATCGT | 1.01 ± 0.021 |
| TTGGGAAAGT | 0.995 ± 0.017 |
| TGGGCAGAGG | 1.01 ± 0.024 |
| ATCTGAATTG | 0.988 ± 0.013 |
| ACCGGAGTCA | 1.22 ± 0.058 |
| ACGTACATGT | 1.44 ± 0.018 |
| GCACGCGGGG | 1.009 ± 0.0015 |
| ATGGCTTCGT | 1.03 ± 0.021 |
| CGAGAAGGTG | 1.24 ± 0.33 |
| GGAATCCGTA | 1.05 ± 0.046 |
| GGATTAGGTG | 1.12 ± 0.017 |
| CTGGGGGAAC | 1.004 ± 0.0049 |
| TTCGGTACTG | 1.01 ± 0.033 |
